# Target: preformed microtubules (polymerized tubulin, paclitaxel-stabilised) (UniProt P02550)
# Experiment: co-sedimentation; microtubule spin-down: 1 μM tau with paclitaxel-stabilised preformed microtubules in general tubulin buffer (80 mM PIPES pH 7.0, 1 mM MgCl2, 1 mM EGTA), 30 min at RT, through a sucrose cushion at 100,000 RCF for 40 min, pellet washed twice; tau (Tau5) and tubulin (5H1) in supernatant and pellet by Western blot; % tau in pellet
# Sequence of UniProt P02550 (P02550 whole entry, looked up): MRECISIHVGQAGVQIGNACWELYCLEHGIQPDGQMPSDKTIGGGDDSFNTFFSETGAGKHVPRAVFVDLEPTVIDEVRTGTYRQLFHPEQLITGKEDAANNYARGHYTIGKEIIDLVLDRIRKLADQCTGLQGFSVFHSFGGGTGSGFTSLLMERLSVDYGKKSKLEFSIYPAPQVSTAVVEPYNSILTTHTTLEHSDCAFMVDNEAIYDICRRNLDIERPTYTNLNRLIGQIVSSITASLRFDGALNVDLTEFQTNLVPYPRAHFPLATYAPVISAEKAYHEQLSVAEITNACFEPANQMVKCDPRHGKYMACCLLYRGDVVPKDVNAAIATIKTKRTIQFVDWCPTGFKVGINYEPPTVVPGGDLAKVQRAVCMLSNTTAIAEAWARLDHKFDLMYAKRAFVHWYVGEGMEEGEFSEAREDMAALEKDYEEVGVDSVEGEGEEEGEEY
substance,measurement,value
"O-GlcNAc modified hT39 (Glc hT39, 2N3R tau) (from UniProt P10636-5 1-410) (natural protein)",percent decrease of tau in the pelleted microtubule fraction relative to unmodified hT39,45%

# — article PMC11927755
